{"source": "paper PMC9214244", "about": "“Multivalent Interaction of Beta-Catenin With its Intrinsically Disordered Binding Partner Adenomatous Polyposis Coli” (Frontiers in Molecular Biosciences, 2022)", "key": {"[1]": {"target": "pAPCabc, full-length R3 domain APCabc containing all five phosphomimetics, fluorescein-labelled at Cys 1501 (UniProt P25054)", "assay": "stopped-flow fluorescence; association: 25 nM fluorescein-labelled APC mixed 1:1 by volume with 250-2,000 nM β-catenin (pseudo first-order); dissociation: pre-formed 1:1 complex (200 nM) mixed with 10 times molar excess of the same APC construct; PBS, 1 mM DTT; 15°C"}, "[2]": {"target": "APCabc, third 20aa repeat (R3) region of APC with subdomains a, b and c, fluorescein-labelled at Cys 1501 (UniProt P25054)", "assay": "stopped-flow fluorescence; association: 25 nM fluorescein-labelled APC mixed 1:1 by volume with 250-2,000 nM β-catenin (pseudo first-order); dissociation: pre-formed 1:1 complex (200 nM) mixed with 10 times molar excess of the same APC construct; PBS, 1 mM DTT; 15°C"}, "[3]": {"target": "APCbc, APC R3 subdomains b and c (residues 1,483–1,533), fluorescein-labelled at Cys 1501 (UniProt P25054)", "assay": "stopped-flow fluorescence; association: 25 nM fluorescein-labelled APC mixed 1:1 by volume with 250-2,000 nM β-catenin (pseudo first-order); dissociation: pre-formed 1:1 complex (200 nM) mixed with 10 times molar excess of the same APC construct; PBS, 1 mM DTT; 15°C"}, "[4]": {"target": "pAPCabc with the flexible linker (FL) inserted between residues 1,500 and 1,501, fluorescein-labelled at Cys 1501 (UniProt P25054)", "assay": "stopped-flow fluorescence; association: 25 nM fluorescein-labelled APC mixed 1:1 by volume with 250-2,000 nM β-catenin (pseudo first-order); dissociation: pre-formed 1:1 complex (200 nM) mixed with 10 times molar excess of the same APC construct; PBS, 1 mM DTT; 15°C"}, "[5]": {"target": "APCabc with the rigid linker (RL) inserted between residues 1,500 and 1,501, fluorescein-labelled at Cys 1501 (UniProt P25054)", "assay": "stopped-flow fluorescence; association: 25 nM fluorescein-labelled APC mixed 1:1 by volume with 250-2,000 nM β-catenin (pseudo first-order); dissociation: pre-formed 1:1 complex (200 nM) mixed with 10 times molar excess of the same APC construct; PBS, 1 mM DTT; 15°C"}, "[6]": {"target": "pAPCabc with the polyproline linker (PP) inserted between residues 1,500 and 1,501, fluorescein-labelled at Cys 1501 (UniProt P25054)", "assay": "stopped-flow fluorescence; association: 25 nM fluorescein-labelled APC mixed 1:1 by volume with 250-2,000 nM β-catenin (pseudo first-order); dissociation: pre-formed 1:1 complex (200 nM) mixed with 10 times molar excess of the same APC construct; PBS, 1 mM DTT; 15°C"}, "[7]": {"target": "pAPCabc with the rigid linker (RL) inserted between residues 1,500 and 1,501, fluorescein-labelled at Cys 1501 (UniProt P25054)", "assay": "stopped-flow fluorescence; association: 25 nM fluorescein-labelled APC mixed 1:1 by volume with 250-2,000 nM β-catenin (pseudo first-order); dissociation: pre-formed 1:1 complex (200 nM) mixed with 10 times molar excess of the same APC construct; PBS, 1 mM DTT; 15°C"}, "[8]": {"target": "APCabc with the flexible linker (FL) inserted between residues 1,500 and 1,501, fluorescein-labelled at Cys 1501 (UniProt P25054)", "assay": "stopped-flow fluorescence; association: 25 nM fluorescein-labelled APC mixed 1:1 by volume with 250-2,000 nM β-catenin (pseudo first-order); dissociation: pre-formed 1:1 complex (200 nM) mixed with 10 times molar excess of the same APC construct; PBS, 1 mM DTT; 15°C"}, "[9]": {"target": "pAPCabc D1486S, fluorescein-labelled at Cys 1501 (UniProt P25054)", "assay": "stopped-flow fluorescence; association: 25 nM fluorescein-labelled APC mixed 1:1 by volume with 250-2,000 nM β-catenin (pseudo first-order); dissociation: pre-formed 1:1 complex (200 nM) mixed with 10 times molar excess of the same APC construct; PBS, 1 mM DTT; 15°C"}, "[10]": {"target": "APCabc with the flexible linker (FL) inserted between residues 1,478 and 1,479, fluorescein-labelled at Cys 1501 (UniProt P25054)", "assay": "stopped-flow fluorescence; association: 25 nM fluorescein-labelled APC mixed 1:1 by volume with 250-2,000 nM β-catenin (pseudo first-order); dissociation: pre-formed 1:1 complex (200 nM) mixed with 10 times molar excess of the same APC construct; PBS, 1 mM DTT; 15°C"}, "[11]": {"target": "pAPCabc, full-length R3 domain APCabc containing all five phosphomimetics, fluorescein-labelled at Cys 1501 (UniProt P25054)", "assay": "fluorescence polarisation; fluorescence anisotropy; β-catenin titrated into 10 nM fluorescein-labelled APC construct; PBS, 1 mM DTT; 15°C; adjusted anisotropy fitted to a Hill equation"}, "[12]": {"target": "APCabc, third 20aa repeat (R3) region of APC with subdomains a, b and c, fluorescein-labelled at Cys 1501 (UniProt P25054)", "assay": "fluorescence polarisation; fluorescence anisotropy; β-catenin titrated into 10 nM fluorescein-labelled APC construct; PBS, 1 mM DTT; 15°C; adjusted anisotropy fitted to a Hill equation"}, "[13]": {"target": "pAPCabc D1486S, fluorescein-labelled at Cys 1501 (UniProt P25054)", "assay": "fluorescence polarisation; fluorescence anisotropy; β-catenin titrated into 10 nM fluorescein-labelled APC construct; PBS, 1 mM DTT; 15°C; adjusted anisotropy fitted to a Hill equation"}}, "data": [{"substance": "armadillo (ARM) repeat domain of human β-catenin (residues 134–671) (from UniProt P35222 134-671) (domain or fragment)", "values": [{"measurement": "koff fast", "setting": "[1]", "result": 0.07, "unit": "s⁻¹"}, {"measurement": "koff slow", "setting": "[1]", "result": 0.0021, "unit": "s⁻¹"}, {"measurement": "kon", "setting": "[1]", "result": "2.07e+08", "unit": "M⁻¹ s⁻¹"}, {"measurement": "time constant τ (from the fast off-rate)", "setting": "[1]", "result": 9.51, "unit": "s"}, {"measurement": "koff fast", "setting": "[2]", "result": 0.46, "unit": "s⁻¹"}, {"measurement": "koff slow", "setting": "[2]", "result": 0.11, "unit": "s⁻¹"}, {"measurement": "kon", "setting": "[2]", "result": "4.92e+07", "unit": "M⁻¹ s⁻¹"}, {"measurement": "time constant τ (from the fast off-rate)", "setting": "[2]", "result": 1.54, "unit": "s"}, {"measurement": "koff fast", "setting": "[3]", "result": 0.73, "unit": "s⁻¹"}, {"measurement": "kon", "setting": "[3]", "result": "1.48e+07", "unit": "M⁻¹ s⁻¹"}, {"measurement": "time constant τ (from the fast off-rate)", "setting": "[3]", "result": 0.96, "unit": "s"}, {"measurement": "koff fast", "setting": "[4]", "result": 0.16, "unit": "s⁻¹"}, {"measurement": "koff slow", "setting": "[4]", "result": 0.0085, "unit": "s⁻¹"}, {"measurement": "kon", "setting": "[4]", "result": "1.01e+08", "unit": "M⁻¹ s⁻¹"}, {"measurement": "time constant τ (from the fast off-rate)", "setting": "[4]", "result": 4.45, "unit": "s"}, {"measurement": "koff fast", "setting": "[5]", "result": 0.89, "unit": "s⁻¹"}, {"measurement": "koff slow", "setting": "[5]", "result": 0.223, "unit": "s⁻¹"}, {"measurement": "kon", "setting": "[5]", "result": "1.81e+07", "unit": "M⁻¹ s⁻¹"}, {"measurement": "time constant τ (from the fast off-rate)", "setting": "[5]", "result": 0.8, "unit": "s"}, {"measurement": "koff fast", "setting": "[6]", "result": 0.44, "unit": "s⁻¹"}, {"measurement": "koff slow", "setting": "[6]", "result": 0.018, "unit": "s⁻¹"}, {"measurement": "kon", "setting": "[6]", "result": "8.97e+07", "unit": "M⁻¹ s⁻¹"}, {"measurement": "time constant τ (from the fast off-rate)", "setting": "[6]", "result": 1.59, "unit": "s"}, {"measurement": "koff fast", "setting": "[7]", "result": 0.21, "unit": "s⁻¹"}, {"measurement": "koff slow", "setting": "[7]", "result": 0.0122, "unit": "s⁻¹"}, {"measurement": "kon", "setting": "[7]", "result": "1.02e+08", "unit": "M⁻¹ s⁻¹"}, {"measurement": "time constant τ (from the fast off-rate)", "setting": "[7]", "result": 3.52, "unit": "s"}, {"measurement": "koff fast", "setting": "[8]", "result": 0.45, "unit": "s⁻¹"}, {"measurement": "koff slow", "setting": "[8]", "result": 0.1, "unit": "s⁻¹"}, {"measurement": "kon", "setting": "[8]", "result": "2.41e+07", "unit": "M⁻¹ s⁻¹"}, {"measurement": "time constant τ (from the fast off-rate)", "setting": "[8]", "result": 1.54, "unit": "s"}, {"measurement": "koff fast", "setting": "[9]", "result": 2.89, "unit": "s⁻¹"}, {"measurement": "koff slow", "setting": "[9]", "result": 0.4, "unit": "s⁻¹"}, {"measurement": "kon", "setting": "[9]", "result": "1.51e+08", "unit": "M⁻¹ s⁻¹"}, {"measurement": "time constant τ (from the fast off-rate)", "setting": "[9]", "result": 0.24, "unit": "s"}, {"measurement": "koff fast", "setting": "[10]", "result": 0.77, "unit": "s⁻¹"}, {"measurement": "koff slow", "setting": "[10]", "result": 0.177, "unit": "s⁻¹"}, {"measurement": "kon", "setting": "[10]", "result": "8.35e+07", "unit": "M⁻¹ s⁻¹"}, {"measurement": "time constant τ (from the fast off-rate)", "setting": "[10]", "result": 0.9, "unit": "s"}, {"measurement": "Kd", "setting": "[11]", "result": 5.3, "unit": "nM"}, {"measurement": "Kd", "setting": "[12]", "result": 16.5, "unit": "nM"}, {"measurement": "Kd", "setting": "[13]", "result": 21.4, "unit": "nM"}]}]}
